First the molecules themselves.
B1: glutamate transporter GLT-1 (excitatory amino acid transporter 2, EAAT2), WT plasmid, P43006 G82R; L85P (protein)
chain: MASTEGANNMPKQVEVRMHDSHLSSDEPKHRNLGMRMCDKLGKNLLLSLTVFGVILGAVCGGLLRLASPIHPDVVMLIAFPRDIPMRMLKMLILPLIISSLITGLSGLDAKASGRLGTRAMVYYMSTTIIAAVLGVILVLAIHPGNPKLKKQLGPGKKNDEVSSLDAFLDLIRNLFPENLVQACFQQIQTVTKKVLVAPPSEEANTTKAVISMLNETMNEAPEETKIVIKKGLEFKDGMNVLGLIGFFIAFGIAMGKMGEQAKLMVEFFNILNEIVMKLVIMIMWYSPLGIACLICGKIIAIKDLEVVARQLGMYMITVIVGLIIHGGIFLPLIYFVVTRKNPFSFFAGIFQAWITALGTASSAGTLPVTFRCLEDNLGIDKRVTRFVLPVGATINMDGTALYEAVAAIFIAQMNGVILDGGQIVTVSLTATLASIGAASIPSAGLVTMLLILTAVGLPTEDISLLVAVDWLLDRMRTSVNVVGDSFGAGIVYHLSKSELDTIDSQHRMQEDIEMTKTQSIYDDKNHRESNSNQCVYAAHNSVVIDECKVTLAANGKSADCSVEEEPWKREK
B2: glutamate transporter GLT-1 (excitatory amino acid transporter 2, EAAT2), WT plasmid, P43006 L85P (protein)
chain: B1 chain with R82G
B3: glutamate transporter GLT-1 (excitatory amino acid transporter 2, EAAT2), WT plasmid, P43006 G82R (protein)
chain: B1 chain with P85L

Changes are numbered by the printed parent chain. In names and notes the source's numbering stands.

Sequence of stromal-interacting molecule 1 (STIM1), Q13586 (Q13586 23-685): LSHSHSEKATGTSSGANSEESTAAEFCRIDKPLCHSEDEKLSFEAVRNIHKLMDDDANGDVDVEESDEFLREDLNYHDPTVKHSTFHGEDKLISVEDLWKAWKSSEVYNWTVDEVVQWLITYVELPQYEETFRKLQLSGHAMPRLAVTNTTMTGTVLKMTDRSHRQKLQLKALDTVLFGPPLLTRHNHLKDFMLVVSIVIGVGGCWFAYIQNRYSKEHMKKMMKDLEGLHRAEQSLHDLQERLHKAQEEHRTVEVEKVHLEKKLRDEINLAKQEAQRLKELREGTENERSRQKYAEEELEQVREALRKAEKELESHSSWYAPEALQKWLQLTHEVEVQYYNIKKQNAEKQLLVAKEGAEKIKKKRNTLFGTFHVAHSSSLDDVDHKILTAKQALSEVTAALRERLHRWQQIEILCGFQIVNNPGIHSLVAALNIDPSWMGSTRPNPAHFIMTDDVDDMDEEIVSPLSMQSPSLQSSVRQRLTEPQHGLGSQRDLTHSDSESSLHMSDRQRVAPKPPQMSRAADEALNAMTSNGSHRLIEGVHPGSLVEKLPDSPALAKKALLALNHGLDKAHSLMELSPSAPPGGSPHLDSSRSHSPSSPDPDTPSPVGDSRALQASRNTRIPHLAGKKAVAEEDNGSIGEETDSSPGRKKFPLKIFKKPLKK
Sequence of Orai1, Q96D31 (Q96D31 whole entry): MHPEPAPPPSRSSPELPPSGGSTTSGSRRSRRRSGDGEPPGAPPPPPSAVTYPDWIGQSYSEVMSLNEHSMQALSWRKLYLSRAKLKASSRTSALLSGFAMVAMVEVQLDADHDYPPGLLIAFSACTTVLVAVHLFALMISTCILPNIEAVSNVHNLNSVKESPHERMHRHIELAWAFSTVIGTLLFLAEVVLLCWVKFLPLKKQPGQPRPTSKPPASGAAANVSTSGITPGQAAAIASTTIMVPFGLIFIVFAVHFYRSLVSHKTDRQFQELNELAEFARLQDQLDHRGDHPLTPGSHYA

The first experiment has as its target Orai1, Q96D31. Description: Co-IP (GLT-1 capture antibody, immunoblot for Orai1, band quantification). Particulars: chain shown with the change; transfected HeLa cells; n = 3 per group; parent: est. 1.0; read off a plot.
Turning to B1, the response (relative band intensity) was found to be 0.27.

Turning to B2, the response (relative band intensity) turned out to be 0.17.

Consider B3, for which the response (relative band intensity) is 0.22.

Another experiment addresses stromal-interacting molecule 1 (STIM1), Q13586. Description: Co-IP (GLT-1 capture antibody, immunoblot for STIM1, band quantification). Particulars: chain shown with the change; transfected HeLa cells; n = 3 per group; parent: est. 1.0; read off a plot. (In general: A western blot detects proteins with antibodies after separation by electrophoresis.)
For the molecule B1, the response (relative band intensity) worked out at 0.08.

Turning to B2, the response (relative band intensity) came out at 0.12.

In the case of B3, the response (relative band intensity) worked out at 0.15.

The target is the same in a further experiment. Description: Co-IP (STIM1 capture antibody, immunoblot for GLT-1, band quantification). Particulars: chain shown with the change; transfected HeLa cells; n = 3 per group; parent: est. 1.0; read off a plot.
For B1, the response (relative band intensity) came out at 0.12.

In the case of B2, the response (relative band intensity) was found to be 0.13.

Regarding B3, the response (relative band intensity) was 0.15.

The values are drawn from article PMC9772344.
